Patent publication US20230212304A1 (BIOSION, published 2023)

T1: recombinant human CTLA4 protein with human IgG1 Fc tag at the C-terminus (Acro biosystems, Cat#CT4-H5255) (human, UniProt P16410 37-162)
T1 construct: bought protein; also called human CTLA4-Fc; CTLA4-Fc; not shown: human IgG1 Fc tag at the C-terminus
T1 sequence (looked up): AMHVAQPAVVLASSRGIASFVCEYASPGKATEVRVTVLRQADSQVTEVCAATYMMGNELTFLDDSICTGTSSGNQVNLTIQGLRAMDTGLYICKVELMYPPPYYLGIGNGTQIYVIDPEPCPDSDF

T2: recombinant human CTLA4-his protein (Acro biosystems, Cat#CT4-H5229) (human, UniProt P16410 37-162)
T2 construct: bought recombinant protein; not shown: his tag
T2 sequence (looked up): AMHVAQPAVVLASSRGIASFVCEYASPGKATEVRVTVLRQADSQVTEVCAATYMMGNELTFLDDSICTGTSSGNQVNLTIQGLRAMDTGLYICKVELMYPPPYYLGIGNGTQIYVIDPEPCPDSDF

T3: cynomolgus monkey CTLA4-his protein (Acro biosystems, Cat#CT4-C5227) (cynomolgus monkey, UniProt G7PL88 36-161)
T3 construct: bought recombinant protein; also called Cynomolgus CTLA4-his; not shown: his tag
T3 sequence: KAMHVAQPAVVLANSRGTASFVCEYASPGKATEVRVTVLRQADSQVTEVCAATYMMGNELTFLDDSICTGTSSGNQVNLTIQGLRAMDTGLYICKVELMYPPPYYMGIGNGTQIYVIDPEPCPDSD


How the values were obtained:
[1] = molecular target: T1, recombinant human CTLA4 protein with …; assay: competitive ELISA: antibody pre-mixed with biotin human CTLA4-Fc (65 ng/ml), added to plate coated with the benchmark; competitor: coated Yervoy
Procedure: Plates were washed once with wash buffer, blocked with 200 µl PBST with 5% w/v non-fatty milk, incubated for 2 hours at 37° C., and washed 4 times.
After incubation at 37° C. for 40 minutes, plates were washed 4 times again using wash buffer. Then the plates were added and incubated with 100 µl/well streptavidin conjugated HRP (1:10000 dilution in PBST, Jackson Immuno Research, Cat#016-030-084, 100 µl/well) for 40 minutes at 37° C. Plates were finally washed using wash buffer. Finally, TMB was added and the reaction was stopped using 1M H₂SO₄, and the absorbance of the each well was read on a microplate reader using dual wavelength mode with 450 nm for TMB and 630 nm as the reference wavelength, then the OD (450-630) values were plotted against antibody concentration. Data was analyzed using Graphpad Prism software and IC₅₀ values were reported.

[2] = molecular target: T1, recombinant human CTLA4 protein with …; assay: capture ELISA: antibody captured on anti-mouse IgG F(ab')2 coated plate, biotin human CTLA4-Fc 26 ng/ml, streptavidin-HRP, OD(450-630)
Procedure: (§1) Plates were washed once with wash buffer (PBS+0.05% v/v Tween-20, PBST) and then blocked with 200 µl/well blocking buffer (PBST with 5% w/v non-fatty milk) for 2 hours at 37° C. […] After a final wash, plates were incubated with 100 µl/well substrate TMB (Innoreagents, Cat#TMB-S-002). The reaction was stopped in 15 minutes at room temperature with 50 µl/well 1M H₂SO₄, and the absorbance of the each well was read on a microplate reader using dual wavelength mode with 450 nm for TMB and 630 nm as the reference wavelength, then the OD (450-630) values were plotted against antibody concentration. Data was analyzed using Graphpad Prism software and EC₅₀ values were reported.

[3] = molecular target: T2, recombinant human CTLA4-his protein …; assay: SPR, Biacore T200; antibody captured, CTLA4-his as analyte
Procedure: (§2) Un-reacted moieties on the biosensor surface were blocked with ethanolamine. […] The antigen-antibody association kinetics was followed for 2 minutes and the dissociation kinetics was followed for 10 minutes. The association and dissociation curves were fit to a 1:1 Langmuir binding model using BIAcore evaluation software.

[4] = molecular target: T3, cynomolgus monkey CTLA4-his protein …; assay: as above
Procedure: as §2

[5] = molecular target: T1, recombinant human CTLA4 protein with …; assay: cell-based or functional assay
[6] = molecular target: T1, recombinant human CTLA4 protein with …; assay: cell based blocking FACS: antibody pre-mixed with human CTLA4-Fc (1 ug/mL), added to Daudi cells; blocked ligands: cell surface CD80/CD86
Procedure: Daudi cells were harvested from cell culture flasks at the log phase, washed twice and re-suspended in PBS containing 2% v/v Fetal Bovine Serum (FACS buffer). […] Cells were washed twice and re-suspended in FACS buffer. Fluorescence was measured using a Becton Dickinson FACS Canto II-HTS equipment. Data was analyzed using Graphpad Prism software and IC₅₀ values were reported.

[7] = molecular target: T1, recombinant human CTLA4 protein with …; assay: capture ELISA: antibody captured on coated plate (anti-human IgG Fc for the chimeric antibodies), biotin human CTLA4-Fc, streptavidin-HRP, OD(450-630)
Procedure: as §1
For the capture ELISA, AffiniPure Goat Anti-Human IgG, Fcy fragment specific (Jackson Immuno Research, Cat#109-005-008) was used instead of AffiniPure Goat Anti-Mouse IgG, F(ab′)₂ fragment specific, 100 µl/well.

[8] = molecular target: T1, recombinant human CTLA4 protein with …; assay: cell based blocking FACS: antibody pre-mixed with human CTLA4-Fc, added to Daudi cells; blocked ligands: cell surface CD80/CD86
[9] = molecular target: T2, recombinant human CTLA4-his protein …; assay: BLI, Octet RED96; antibody on AHC sensor, CTLA4-his as analyte
Procedure: Briefly, AHC biosensors (anti-human IgG Fc capture, from ForteBio) were presoaked with 10 mM glycine (pH 1.5) for 3 seconds, and then dipped in a well with running buffer (0.5% w/v BSA in PBST) for 3 seconds, the soaking and dipping steps were repeated for three times. […] A new baseline was run for 180 seconds in another well with running buffer. […] Finally, sensors were presoaked with 10 mM glycine (pH 1.5) for 3 seconds, and then were dipped in a well with running buffer for 3 seconds, the soaking and dipping steps repeated for three times. The association and dissociation curves were fit to a 1:1 Langmuir binding model using ForteBio Data Analysis 8.1.

Binder	IC50 [1] [nM]	EC50 [2] [nM]	Kd [3] [nM]	koff [3] [s⁻¹]	kon [3] [M⁻¹ s⁻¹]	Kd [4] [nM]	koff [4] [s⁻¹]	kon [4] [M⁻¹ s⁻¹]	EC50 of IL-2 release (GS-J1 T cells + GS-C1/CD80 cells + human CTLA4-Fc, IL-2 HTRF) [5] [nM]	IC50 [6] [nM]	EC50 [7] [nM]	IC50 [8] [nM]	IC50 (read off the curve) [1] [nM]	Kd [9] [nM]	koff [9] [s⁻¹]	kon [9] [M⁻¹ s⁻¹]
mouse anti-CTLA4 monoclonal antibody D2A4 (antibody, V domains shown, mouse mAb purified from hybridoma supernatant) VH: QVQLQQPGAELVKPGSSVNLSCKASGYTFTSYWVHWVKQGPGRGLEWIGRIDPNRGGTYYNENFKTKAALTVDSPSSTAYMHLSSLTSEDSAVYYCARGGLNYYALDYWGQGTSVTVSS VL: DIQMTQSPASLFASLGETVTITCRASENIYSYLAWYQQKQGKSPQLLVYNANTLTEGVPSSFSGSGSGTQFSLKINTLQPEDFGTYYCQHHYGIPFTFGSGTKLEIK	3.85	0.245	2.24	0.00153	671000	2.24	0.00076	340000	38.3	7.12	–	–	–	–	–	–
mouse anti-CTLA4 monoclonal antibody D1A7 (antibody, V domains shown, mouse mAb purified from hybridoma supernatant) VH: QVTLKESGPGMLQPSQTLSLTCSFSGFSLSSSKLGVGWIRQPAGKGLEWLAHIWWNDDNYYVPSLKSRLTISKDTSNNQVFLKITNVDAADTATYYCVQVPYYTTQPWFAYWGQGTLVTVSA VL: DIQMTQSPASLSASVGETVTITCRASGNIHNYLAWYLQNQGRSPQLLVYNTETLADGVSSRFSGSGSGTQYFLKISSLQPEDFGTYYCQHLWSTPWTFGGGTKLEIK	0.445	0.134	2.41	0.000602	249000	1.66	0.00137	829000	45.9	6.81	–	–	–	–	–	–
mouse anti-CTLA4 monoclonal antibody C1G4 (antibody, V domains shown, mouse mAb purified from hybridoma supernatant) VH: EVKLDETGGGLVQPGRPIKLSCVASGFTFSDNWMNWVRQSPEKGLEWVAQIRNKPYNYETYYSDSVKGRFTISRDDSKSSVYLQMNNLRTKDMGIYYCTGGFTYWGQGTLVTVSA VL: DIQMTQSPPSLSASVGETVTITCGASENIYGGLNWYQRKQGKSPQLLIYGATNLADGMSSRFSGSGSGRQYSLKISRLHPDDVATYYCQNVLNTPYTFGGGTKLEIK	0.865	0.134	1.77	0.000513	290000	1.71	0.00077	451000	35.3	11	0.832	10.6	–	–	–	–
mouse anti-CTLA4 monoclonal antibody D1G6 (antibody, V domains shown, mouse mAb purified from hybridoma supernatant) VH: EVQLQQSGPELVKPGASVKLSCKASGNTFTTYVLNWVKQKPGQGLEWIGYFNPYNDAIKYNEKFKGKATLTSDKSSSTAYMELSSLTSEDSAVYYCARFEGGGYAMDYWGQGTSVTVSS VL: DIVLTQSPASLAVSLGQRATISCRASQSVGTSSYSYIHWYQQKPGQPPKLLIKYASDLESGVPARFSGSGSGTDFTLNIHPVEEEDTATYYCQHSWEIPYTFGGGTKLEIK	0.445	0.0979	9.06	0.000695	76700	1.96	0.000662	338000	41.5	–	–	–	–	–	–	–
mouse anti-CTLA4 monoclonal antibody D1H3 (antibody, V domains shown, mouse mAb purified from hybridoma supernatant) VH: QVQLQQPGAELVNPGASVKLSCKASGYTFTSYWLHWVKQRPGRGLEWIGRIDPNRGTIYYNEKFNNKATVTVDKPSNTAYMQLSRLTLEDSAVYYCARGGSNFYAMDYWGQGTSVTVSS VL: DIQMTQSPASLSASVGETVTITCRTSENIYSYLAWYQQKQGESPQLLVYNAKTLAEGVPSRFSGSGSGTQFSLKINSLQPEDFGSYYCQNHDGIPFTFGSGTKLEIK	1.86	0.206	4.15	0.000931	224000	2.07	0.000601	290000	37.8	9.27	–	–	–	–	–	–
mouse anti-CTLA4 monoclonal antibody D1H4 (antibody, V domains shown, mouse mAb purified from hybridoma supernatant) VH: EVQLQQSGPVLVKPGASVKMSCKASGYTFTDYYMNWVKQSHGKSLEWIGAINPDHGGSSYNQKFKGKATLTVDKSSSTAYMELNSLTSEDSAVYYCARDGSIHYVMDDWGQGTSVTVSS VL: DIVMSQSPSSLTVSAGDKVTMSCKSSQSLLHSGNQKNYLAWYQQKPWQPPKLLIYGASTRESGVPDRFTGSGSGTDFTLTISSVQAEDLAVYYCQNDYGYPYTFGGGTKLEIK	–	0.108	0.925	0.000321	346000	0.727	0.000422	580000	~40.8	~8.85	–	–	~2	–	–	–
chimeric C1G4 anti-CTLA4 antibody (antibody, human IgG4 S228P, kappa, V domains shown, mouse variable domains on human IgG4/kappa, made in 293F cells) VH: EVKLDETGGGLVQPGRPIKLSCVASGFTFSDNWMNWVRQSPEKGLEWVAQIRNKPYNYETYYSDSVKGRFTISRDDSKSSVYLQMNNLRTKDMGIYYCTGGFTYWGQGTLVTVSA VL: DIQMTQSPPSLSASVGETVTITCGASENIYGGLNWYQRKQGKSPQLLIYGATNLADGMSSRFSGSGSGRQYSLKISRLHPDDVATYYCQNVLNTPYTFGGGTKLEIKR	–	–	–	–	–	–	–	–	–	–	0.869	10.2	–	1	0.000679	676000
chimeric D1B6 anti-CTLA4 antibody (antibody, human IgG4 S228P, kappa, V domains shown, mouse variable domains on human IgG4/kappa, made in 293F cells) VH: EVQLQQSGPELVKPGASVKLSCKASGNTFTTYVLNWVKQKPGQGLEWIGYFNPYNDGIKYNEKFKGKATLTSDKSSNTAYMELSSLTSEDSAVYYCARFEGGGYAMDYWGQGTSVTVSS VL: DIVLTQSPASLAVSLGQRATISCRASQSVGTSRNTYIHWYQQKLGQPPKLLIKYASDLESGVPARFSGSGSGTDFTLNIHPVEEEDTATYYCQHSWEIPYTFGGGTKLEIKR	–	–	–	–	–	–	–	–	–	–	0.514	~6.6	–	148	0.00076	5140
